Reference: PMC6084945, “SURGE complex of Plasmodium falciparum in the rhoptry-neck (SURFIN4.2-RON4-GLURP) contributes to merozoite invasion” (PLoS ONE, 2018)

Molecular target: the molecule itself
Assay: non-reducing SDS-PAGE; purified recombinant protein eluted from the nickel resin, Coomassie stained gel with and without 2-mercaptoethanol; dimer size band under non-reducing conditions

B1: recombinant SURFIN4.2 extracellular domain (position 1-746), N-terminal 6x histidine-tagged (domain or fragment)
chain: MLFVVELDSRLEKSADKRISVERFRKIFEIYVEDKLEELKRSGSEKYDKDCRDFNYFIDDVKDVFINNDLVKIPVKVRKSIWETHVDKNLPKLMKNTTSCKCIRKEHNYNKEYRDMTRTLEDFCEEKTRKLEIIYQKDYDESLYVNFNEWINKKKEDILKEYEKLSNKDKYKHLLKISETCDLNHVDKLFLNISSEDMKKMKEDVKKQHLEVKVRPPVNEPIDDRGKEDALSRGGKSIILNKEENSPTEEITTEYNPVSEMGVGTTIAHSEPGPKTVNTEVRNVLRSDGKISDQGSQKSPPKELSNKQMTPAQRKNVPHFVERRGYGNSHVRGNALKKISNGDDNYKSPSSNYIEVDCAEDKYFLLEDGTNQSENSCKTKYNYFVSNDYDGTGSAIYSTDQVPSREEIKSPDSLSTLDARGSTHNLNVSNEGNPLEGGEEKNNVKISEQNGRNLESSVGTDKGSDKNEEEVAATCDPNDRNCFDGRYINVDYIRGLLKGKRSGSDGRSNIKHIISNNFDDSNMIFPTFNFDFDILKAEEEVLPVNNSDIIYGHEEVEETTQEGASIFEKHSHTSSQQNDSSASGNKYRMLSTTMELPNQQEVFGLYSPVSRTLDSAMSFLRSIISLSSAPVSRSEGQSKESKRVEISTTVQDPIGYRTSPLQMNAHSVGAGINVSSILSMLGLSSGQVRRSGGQGSETYIVGTSQSGFHKNEVIPSIKDKSGKTQIVSNEKGGIFSKGITSMMSSL
For B1, the “stoichiometry N” value was 2.
